Patent US20170267776A1 (published 2017)
Numbering of substitutions follows the chain as printed.

T1: recombinant human RSPO3 protein, biotinylated (captured on streptavidin-coated chips) (human, UniProt Q9BXY4 22-272, limits assumed, biotinylated (sites not given))
T1 sequence: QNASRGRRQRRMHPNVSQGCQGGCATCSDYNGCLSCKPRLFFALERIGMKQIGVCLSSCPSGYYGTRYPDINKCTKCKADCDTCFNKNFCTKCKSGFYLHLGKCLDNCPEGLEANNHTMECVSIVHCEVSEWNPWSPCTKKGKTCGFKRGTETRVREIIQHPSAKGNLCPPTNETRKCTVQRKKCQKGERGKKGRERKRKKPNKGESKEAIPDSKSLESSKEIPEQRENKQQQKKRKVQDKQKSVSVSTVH

T2: LGR5-Fc fusion protein (mature form containing amino acids 22-564 of human LGR5 fused to human Fc) (human, UniProt O75473 22-564)
T2 construct: range 22-564; Expressed in insect cells (baculovirus) and purified by protein A; also called soluble LGR5-Fc; not shown: human Fc
T2 sequence (looked up): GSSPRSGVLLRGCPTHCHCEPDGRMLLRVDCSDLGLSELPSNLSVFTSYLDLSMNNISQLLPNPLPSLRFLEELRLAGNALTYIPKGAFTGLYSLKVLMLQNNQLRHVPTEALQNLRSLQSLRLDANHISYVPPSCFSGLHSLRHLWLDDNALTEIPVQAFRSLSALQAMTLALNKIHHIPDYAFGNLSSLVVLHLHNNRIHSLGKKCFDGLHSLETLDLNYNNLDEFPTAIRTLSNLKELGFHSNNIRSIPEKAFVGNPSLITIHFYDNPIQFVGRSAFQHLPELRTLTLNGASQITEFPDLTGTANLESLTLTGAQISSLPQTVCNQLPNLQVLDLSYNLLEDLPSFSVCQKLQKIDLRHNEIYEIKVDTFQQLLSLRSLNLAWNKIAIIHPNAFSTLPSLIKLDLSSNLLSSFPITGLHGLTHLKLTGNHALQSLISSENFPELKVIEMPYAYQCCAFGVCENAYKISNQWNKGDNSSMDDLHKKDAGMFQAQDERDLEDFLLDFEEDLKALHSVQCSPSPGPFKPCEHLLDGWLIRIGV

B1: anti-RSPO3 antibody 131R002 (IgG2) (antibody, V domains shown)
VH: QVQLQESGPELVKPGASVKISCKASGYTFTDYSIHWVKQNHGKSLDWIGYIYPSNGDSGYNQKFKNRATLTVDTSSSTAYLEVRRLTFEDSAVYYCATYFANYFDYWGQGTTLTVSS
VL: DIVLTQSPASLAVSLGQRATISCKASQSVDYDGDSYMNWYQQKPGQPPKLLIYAASNLESGIPARFSGSGSGTDFTLNIHPVEEEDAATYYCQQSNEDPLTFGAGTKLELKR
B2: anti-RSPO3 antibody 131R003 (IgG2) (antibody, V domains shown)
VH: B1 VH with Q5K, E6Q, S76Y
VL: B1 VL
notes: also called parental 131R003
B3: RSPO4-Fc fusion protein (full-length human RSPO4 ligated in-frame to a human Fc region) (Fc fusion, UniProt Q2I0M5 20-234, looked up)
chain: LNRRKKQVGTGLGGNCTGCIICSEENGCSTCQQRLFLFIRREGIRQYGKCLHDCPPGYFGIRGQEVNRCKKCGATCESCFSQDFCIRCKRQFYLYKGKCLPTCPPGTLAHQNTRECQGECELGPWGGWSPCTHNGKTCGSAWGLESRVREAGRAGHEEAATCQVLSESRKCPIQRPCPGERSPGQKKGRKDRRPRKDRKLDRRLDVRPRQPGLQP
notes: not shown: human Fc region

Legend:
[1] = target: T1, recombinant human RSPO3 protein, …; assay: summary of Example 3 (SPR, Biacore 2000)
Description: The antibodies were serially diluted 2-fold from 100 nM to 0.78 nM in HBS-P (0.01M HEPES pH 7.4, 0.15M NaCl, 0.005% v/v Surfactant P20) and were injected over the chip surface. Kinetic data were collected over time and were fit using the simultaneous global fit equation to yield affinity constants (KD values) for each antibody.

[2] = target: T2, LGR5-Fc fusion protein (mature form …); assay: SPR (Biacore 2000): RSPO-Fc immobilised on CM5 chip, soluble LGR5-Fc injected 100 nM to 0.78 nM
Description: Binding affinities between RSPO proteins and LGR5 were analyzed by surface plasmon resonance. A soluble LGR5-Fc construct was generated using standard recombinant DNA techniques. Specifically, amino acids 1-564 of human LGR5 were ligated in frame to human Fc and the recombinant LGR5-Fc fusion protein was expressed in insect cells using baculovirus. The LGR5-Fc fusion protein was purified from the insect medium using protein A chromatography. Cleavage of the LGR5 signal sequence results in a mature LGR5-Fc fusion protein containing amino acids 22-564 of LGR5. […] Two-fold dilutions of soluble LGR5-Fc were injected over the chip surface (100 nM to 0.78 nM). Kinetic data were collected over time using a Biacore 2000 system from Biacore Life Sciences (GE Healthcare) and the data were fit using the simultaneous global fit equation to yield affinity constants (KD values) for each RSPO protein (Table 3).

Binder	Kd [1] [µM]	Kd [2] [µM]
B1	< 0.01	
B2	< 0.01	
B3		0.073
